Data from paper PMC9482650, “Quantitative fragmentomics allow affinity mapping of interactomes” (Nature Communications, 2022).

T1: LRRC7, Q96NW7
T1 sequence (Q96NW7 1440-1537, limits assumed, looked up): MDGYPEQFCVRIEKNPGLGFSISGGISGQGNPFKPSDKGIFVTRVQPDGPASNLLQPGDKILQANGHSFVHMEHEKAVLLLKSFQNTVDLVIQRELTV

T2: MPP6, Q9NZW5
T2 sequence (Q9NZW5 125-219, limits assumed, looked up): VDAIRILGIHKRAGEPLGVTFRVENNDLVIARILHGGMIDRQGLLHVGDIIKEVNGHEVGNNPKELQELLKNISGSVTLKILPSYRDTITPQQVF

T3: NHERF3_1, Q5T2W1
T3 sequence (Q5T2W1 4-100, limits assumed, looked up): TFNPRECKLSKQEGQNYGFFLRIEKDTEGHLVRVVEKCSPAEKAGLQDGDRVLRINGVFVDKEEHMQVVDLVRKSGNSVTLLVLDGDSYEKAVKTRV

T4: NHERF3_3, Q5T2W1
T4 sequence (Q5T2W1 238-333, limits assumed, looked up): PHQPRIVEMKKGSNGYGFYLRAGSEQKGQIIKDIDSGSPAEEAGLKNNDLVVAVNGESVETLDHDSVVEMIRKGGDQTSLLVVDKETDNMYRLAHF

T5: PARD3B_1, Q8TEW8
T5 sequence (Q8TEW8 196-299, limits assumed, looked up): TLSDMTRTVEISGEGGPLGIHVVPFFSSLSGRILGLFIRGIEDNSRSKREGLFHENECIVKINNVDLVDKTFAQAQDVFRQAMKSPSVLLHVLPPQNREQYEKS

T6: SNTG1, Q9NSN8
T6 sequence (Q9NSN8 52-150, limits assumed, looked up): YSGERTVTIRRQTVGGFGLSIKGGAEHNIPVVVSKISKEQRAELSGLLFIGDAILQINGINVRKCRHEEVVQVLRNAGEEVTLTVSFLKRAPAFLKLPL

T7: SNTG2, Q9NY99
T7 sequence (Q9NY99 68-166, limits assumed, looked up): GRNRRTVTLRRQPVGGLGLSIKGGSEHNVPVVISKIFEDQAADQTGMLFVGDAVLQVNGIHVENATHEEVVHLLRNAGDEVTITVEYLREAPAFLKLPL

T8: TIAM2, Q8IVF5
T8 sequence (Q8IVF5 885-986, limits assumed, looked up): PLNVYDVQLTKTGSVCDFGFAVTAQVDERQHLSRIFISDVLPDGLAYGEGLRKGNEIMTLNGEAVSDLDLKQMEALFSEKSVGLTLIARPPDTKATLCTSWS


What follows are binders tested against ARHGEF12, Q9NZN5-2 (assay: holdup assay). Details: plain residues with an end cap or a label only (N-terminal biotin on a linker: ado-ado).
Set-up: key: below the threshold = too weak to quantify, mostly under pKd 3.1 to 4

ARHGEF12, Q9NZN5-2, sequence (Q9NZN5 other isoform, or with tags, fused parts or gaps): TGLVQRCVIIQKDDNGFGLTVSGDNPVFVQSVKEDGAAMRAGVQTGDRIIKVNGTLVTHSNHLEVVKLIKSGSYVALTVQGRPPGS

Row | pKd | Binder
1 | 3.59 | TASPAKETSF [SLC2A7, Q6PXP3]

The binders below were run against DLG1_2, Q12959 (assay: holdup assay). Details: plain residues with an end cap or a label only (N-terminal biotin on a linker: ado-ado).
Set-up: key: below the threshold = too weak to quantify, mostly under pKd 3.1 to 4

DLG1_2, Q12959, sequence (Q12959 314-412): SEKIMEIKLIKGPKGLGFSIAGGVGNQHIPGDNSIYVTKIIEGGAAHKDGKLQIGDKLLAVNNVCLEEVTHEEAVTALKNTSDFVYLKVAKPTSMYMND

Row | pKd | Binder
2 | 4.5 | TASPAKETSF [SLC2A7, Q6PXP3]

What follows are binders tested against DLG1_3, Q12959 (assay: holdup assay). Details: plain residues with an end cap or a label only (N-terminal biotin on a linker: ado-ado).
Set-up: key: below the threshold = too weak to quantify, mostly under pKd 3.1 to 4

DLG1_3, Q12959, sequence (Q12959 457-571): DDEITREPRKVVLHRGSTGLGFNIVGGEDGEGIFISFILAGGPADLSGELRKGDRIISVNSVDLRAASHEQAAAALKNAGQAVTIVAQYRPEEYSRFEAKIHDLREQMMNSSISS

Row | pKd | Binder
3 | below the threshold | TASPAKETSF [SLC2A7, Q6PXP3]

Each binder was assayed against DLG4_2, P78352 (assay: holdup assay). Details: plain residues with an end cap or a label only (N-terminal biotin on a linker: ado-ado).
Set-up: key: below the threshold = too weak to quantify, mostly under pKd 3.1 to 4

DLG4_2, P78352, sequence (P78352 155-259): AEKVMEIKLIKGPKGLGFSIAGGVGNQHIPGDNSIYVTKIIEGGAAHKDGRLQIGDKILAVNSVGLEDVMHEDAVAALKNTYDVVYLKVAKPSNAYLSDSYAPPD

Row | pKd | Binder
4 | 4.11 | TASPAKETSF [SLC2A7, Q6PXP3]

The binders below were run against DLG4_3, P78352 (assay: holdup assay). Details: plain residues with an end cap or a label only (N-terminal biotin on a linker: ado-ado).
Set-up: key: below the threshold = too weak to quantify, mostly under pKd 3.1 to 4

DLG4_3, P78352, sequence (P78352 306-403): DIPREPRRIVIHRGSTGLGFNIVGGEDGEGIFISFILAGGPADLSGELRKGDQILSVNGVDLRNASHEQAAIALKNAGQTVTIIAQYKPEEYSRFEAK

Row | pKd | Binder
5 | below the threshold | TASPAKETSF [SLC2A7, Q6PXP3]

Each binder was assayed against GRASP, Q7Z6J2 (assay: holdup assay). Details: plain residues with an end cap or a label only (N-terminal biotin on a linker: ado-ado).
Set-up: key: below the threshold = too weak to quantify, mostly under pKd 3.1 to 4

GRASP, Q7Z6J2, sequence (Q7Z6J2 96-193): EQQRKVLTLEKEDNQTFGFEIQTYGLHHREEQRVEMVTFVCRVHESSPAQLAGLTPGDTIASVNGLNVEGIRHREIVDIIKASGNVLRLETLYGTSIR

Row | pKd | Binder
6 | below the threshold | TASPAKETSF [SLC2A7, Q6PXP3]

What follows are binders tested against GRIP2_6, Q9C0E4 (assay: holdup assay). Details: plain residues with an end cap or a label only (N-terminal biotin on a linker: ado-ado).
Set-up: key: below the threshold = too weak to quantify, mostly under pKd 3.1 to 4

GRIP2_6, Q9C0E4, sequence (Q9C0E4 648-740): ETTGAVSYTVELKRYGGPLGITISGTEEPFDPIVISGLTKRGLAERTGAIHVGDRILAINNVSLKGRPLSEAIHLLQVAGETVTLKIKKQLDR

Row | pKd | Binder
7 | below the threshold | TASPAKETSF [SLC2A7, Q6PXP3]

These binders were tested against IL16_1, Q14005 (assay: holdup assay). Details: plain residues with an end cap or a label only (N-terminal biotin on a linker: ado-ado).
Set-up: key: below the threshold = too weak to quantify, mostly under pKd 3.1 to 4

IL16_1, Q14005, sequence (Q14005 210-306): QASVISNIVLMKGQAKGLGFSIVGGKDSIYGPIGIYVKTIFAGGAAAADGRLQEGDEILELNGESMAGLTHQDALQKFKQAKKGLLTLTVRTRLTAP

Row | pKd | Binder
8 | below the threshold | TASPAKETSF [SLC2A7, Q6PXP3]

These binders were tested against IL16_4, Q14005 (assay: holdup assay). Details: plain residues with an end cap or a label only (N-terminal biotin on a linker: ado-ado).
Set-up: key: below the threshold = too weak to quantify, mostly under pKd 3.1 to 4

IL16_4, Q14005, sequence (Q14005 1229-1329): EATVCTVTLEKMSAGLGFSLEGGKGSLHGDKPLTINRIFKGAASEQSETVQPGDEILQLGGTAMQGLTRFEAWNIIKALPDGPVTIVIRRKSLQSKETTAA

Row | pKd | Binder
9 | below the threshold | TASPAKETSF [SLC2A7, Q6PXP3]

What follows are binders tested against Inadl_1, Q8NI35 (assay: holdup assay). Details: plain residues with an end cap or a label only (N-terminal biotin on a linker: ado-ado).
Set-up: key: below the threshold = too weak to quantify, mostly under pKd 3.1 to 4

Inadl_1, Q8NI35, sequence (Q8NI35 113-229): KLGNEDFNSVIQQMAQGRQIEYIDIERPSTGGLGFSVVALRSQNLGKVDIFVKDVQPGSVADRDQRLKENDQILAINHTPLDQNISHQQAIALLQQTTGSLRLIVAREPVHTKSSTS

Row | pKd | Binder
10 | below the threshold | TASPAKETSF [SLC2A7, Q6PXP3]

The binders below were run against Inadl_3, Q8NI35 (assay: holdup assay). Details: plain residues with an end cap or a label only (N-terminal biotin on a linker: ado-ado).
Set-up: key: below the threshold = too weak to quantify, mostly under pKd 3.1 to 4

Inadl_3, Q8NI35, sequence (Q8NI35 359-469): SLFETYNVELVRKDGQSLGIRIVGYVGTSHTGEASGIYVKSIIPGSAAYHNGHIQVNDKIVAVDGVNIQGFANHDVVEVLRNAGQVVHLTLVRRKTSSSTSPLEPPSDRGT

Row | pKd | Binder
11 | below the threshold | TASPAKETSF [SLC2A7, Q6PXP3]

What follows are binders tested against LAP2, Q96RT1 (assay: holdup assay). Details: plain residues with an end cap or a label only (N-terminal biotin on a linker: ado-ado).
Set-up: key: below the threshold = too weak to quantify, mostly under pKd 3.1 to 4

LAP2, Q96RT1, sequence (Q96RT1 other isoform, or with tags, fused parts or gaps): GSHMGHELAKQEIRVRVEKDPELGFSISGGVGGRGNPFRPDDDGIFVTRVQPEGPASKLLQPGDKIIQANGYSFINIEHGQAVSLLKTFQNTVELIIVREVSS

Row | pKd | Binder
12 | below the threshold | TASPAKETSF [SLC2A7, Q6PXP3]

These binders were tested against LDB3, O75112 (assay: holdup assay). Details: plain residues with an end cap or a label only (N-terminal biotin on a linker: ado-ado).
Set-up: key: below the threshold = too weak to quantify, mostly under pKd 3.1 to 4

LDB3, O75112, sequence (O75112 1-94): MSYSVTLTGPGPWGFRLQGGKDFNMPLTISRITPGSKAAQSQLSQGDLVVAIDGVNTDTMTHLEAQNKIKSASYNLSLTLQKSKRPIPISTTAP

Row | pKd | Binder
13 | 3.65 | TASPAKETSF [SLC2A7, Q6PXP3]

What follows are binders tested against LIMK2, P53671 (assay: holdup assay). Details: plain residues with an end cap or a label only (N-terminal biotin on a linker: ado-ado).
Set-up: key: below the threshold = too weak to quantify, mostly under pKd 3.1 to 4

LIMK2, P53671, sequence (P53671 143-248): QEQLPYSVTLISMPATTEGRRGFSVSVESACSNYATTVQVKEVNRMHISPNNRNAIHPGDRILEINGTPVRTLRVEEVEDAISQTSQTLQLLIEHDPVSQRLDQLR

Row | pKd | Binder
14 | below the threshold | TASPAKETSF [SLC2A7, Q6PXP3]

What follows are binders tested against T1, LRRC7, Q96NW7 (assay: holdup assay). Details: plain residues with an end cap or a label only (N-terminal biotin on a linker: ado-ado).
Set-up: key: below the threshold = too weak to quantify, mostly under pKd 3.1 to 4

Row | pKd | Binder
15 | below the threshold | TASPAKETSF [SLC2A7, Q6PXP3]

These binders were tested against MAST2, Q6P0Q8 (assay: holdup assay). Details: plain residues with an end cap or a label only (N-terminal biotin on a linker: ado-ado).
Set-up: key: below the threshold = too weak to quantify, mostly under pKd 3.1 to 4

MAST2, Q6P0Q8, sequence (Q6P0Q8 1099-1202): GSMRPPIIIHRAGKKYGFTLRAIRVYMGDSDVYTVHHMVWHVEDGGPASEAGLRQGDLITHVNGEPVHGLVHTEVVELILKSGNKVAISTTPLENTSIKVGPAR

Row | pKd | Binder
16 | 5.21 | TASPAKETSF [SLC2A7, Q6PXP3]

What follows are binders tested against T2, MPP6, Q9NZW5 (assay: holdup assay). Details: plain residues with an end cap or a label only (N-terminal biotin on a linker: ado-ado).
Set-up: key: below the threshold = too weak to quantify, mostly under pKd 3.1 to 4

Row | pKd | Binder
17 | below the threshold | TASPAKETSF [SLC2A7, Q6PXP3]

The binders below were run against T3, NHERF3_1, Q5T2W1 (assay: holdup assay). Details: plain residues with an end cap or a label only (N-terminal biotin on a linker: ado-ado).
Set-up: key: below the threshold = too weak to quantify, mostly under pKd 3.1 to 4

Row | pKd | Binder
18 | 4.95 | TASPAKETSF [SLC2A7, Q6PXP3]

The binders below were run against T4, NHERF3_3, Q5T2W1 (assay: holdup assay). Details: plain residues with an end cap or a label only (N-terminal biotin on a linker: ado-ado).
Set-up: key: below the threshold = too weak to quantify, mostly under pKd 3.1 to 4

Row | pKd | Binder
19 | below the threshold | TASPAKETSF [SLC2A7, Q6PXP3]

The binders below were run against NHERF4_4, Q86UT5 (assay: holdup assay). Details: plain residues with an end cap or a label only (N-terminal biotin on a linker: ado-ado).
Set-up: key: below the threshold = too weak to quantify, mostly under pKd 3.1 to 4

NHERF4_4, Q86UT5, sequence (Q86UT5 464-550): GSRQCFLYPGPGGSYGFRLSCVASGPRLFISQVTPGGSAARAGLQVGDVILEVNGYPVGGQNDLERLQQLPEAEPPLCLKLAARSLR

Row | pKd | Binder
20 | below the threshold | TASPAKETSF [SLC2A7, Q6PXP3]

The binders below were run against T5, PARD3B_1, Q8TEW8 (assay: holdup assay). Details: plain residues with an end cap or a label only (N-terminal biotin on a linker: ado-ado).
Set-up: key: below the threshold = too weak to quantify, mostly under pKd 3.1 to 4

Row | pKd | Binder
21 | 3.96 | TASPAKETSF [SLC2A7, Q6PXP3]

Each binder was assayed against PARD3_3, Q8TEW0 (assay: holdup assay). Details: plain residues with an end cap or a label only (N-terminal biotin on a linker: ado-ado).
Set-up: key: below the threshold = too weak to quantify, mostly under pKd 3.1 to 4

PARD3_3, Q8TEW0, sequence (Q8TEW0 582-685): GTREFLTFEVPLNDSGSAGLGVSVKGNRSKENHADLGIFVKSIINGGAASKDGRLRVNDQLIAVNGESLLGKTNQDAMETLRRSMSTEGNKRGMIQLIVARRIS

Row | pKd | Binder
22 | below the threshold | TASPAKETSF [SLC2A7, Q6PXP3]

What follows are binders tested against PICK1, Q9NRD5 (assay: holdup assay). Details: plain residues with an end cap or a label only (N-terminal biotin on a linker: ado-ado).
Set-up: key: below the threshold = too weak to quantify, mostly under pKd 3.1 to 4

PICK1, Q9NRD5, sequence (Q9NRD5 17-115): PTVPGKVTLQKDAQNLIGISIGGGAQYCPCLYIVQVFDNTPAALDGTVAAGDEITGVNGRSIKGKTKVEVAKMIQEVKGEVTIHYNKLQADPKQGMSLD

Row | pKd | Binder
23 | below the threshold | TASPAKETSF [SLC2A7, Q6PXP3]

These binders were tested against PTPN3, P26045 (assay: holdup assay). Details: plain residues with an end cap or a label only (N-terminal biotin on a linker: ado-ado).
Set-up: key: below the threshold = too weak to quantify, mostly under pKd 3.1 to 4

PTPN3, P26045, sequence (P26045 505-587): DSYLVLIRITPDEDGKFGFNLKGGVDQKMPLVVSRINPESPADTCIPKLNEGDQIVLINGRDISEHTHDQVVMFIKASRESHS

Row | pKd | Binder
24 | 5.22 | TASPAKETSF [SLC2A7, Q6PXP3]

The binders below were run against SCRIB_1, Q14160 (assay: holdup assay). Details: plain residues with an end cap or a label only (N-terminal biotin on a linker: ado-ado).
Set-up: key: below the threshold = too weak to quantify, mostly under pKd 3.1 to 4

SCRIB_1, Q14160, sequence (Q14160 718-814): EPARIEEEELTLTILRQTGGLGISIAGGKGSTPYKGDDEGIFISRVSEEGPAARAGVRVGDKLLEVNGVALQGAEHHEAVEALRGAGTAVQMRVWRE

Row | pKd | Binder
25 | 4.56 | TASPAKETSF [SLC2A7, Q6PXP3]

What follows are binders tested against SCRIB_3, Q14160 (assay: holdup assay). Details: plain residues with an end cap or a label only (N-terminal biotin on a linker: ado-ado).
Set-up: key: below the threshold = too weak to quantify, mostly under pKd 3.1 to 4

SCRIB_3, Q14160, sequence (Q14160 999-1103): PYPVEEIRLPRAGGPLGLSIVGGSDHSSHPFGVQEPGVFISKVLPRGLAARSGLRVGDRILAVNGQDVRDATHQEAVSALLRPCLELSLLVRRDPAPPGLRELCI

Row | pKd | Binder
26 | 5.14 | TASPAKETSF [SLC2A7, Q6PXP3]

Each binder was assayed against T6, SNTG1, Q9NSN8 (assay: holdup assay). Details: plain residues with an end cap or a label only (N-terminal biotin on a linker: ado-ado).
Set-up: key: below the threshold = too weak to quantify, mostly under pKd 3.1 to 4

Row | pKd | Binder
27 | 3.56 | TASPAKETSF [SLC2A7, Q6PXP3]

Each binder was assayed against T7, SNTG2, Q9NY99 (assay: holdup assay). Details: plain residues with an end cap or a label only (N-terminal biotin on a linker: ado-ado).
Set-up: key: below the threshold = too weak to quantify, mostly under pKd 3.1 to 4

Row | pKd | Binder
28 | below the threshold | TASPAKETSF [SLC2A7, Q6PXP3]

What follows are binders tested against T8, TIAM2, Q8IVF5 (assay: holdup assay). Details: plain residues with an end cap or a label only (N-terminal biotin on a linker: ado-ado).
Set-up: key: below the threshold = too weak to quantify, mostly under pKd 3.1 to 4

Row | pKd | Binder
29 | 3.63 | TASPAKETSF [SLC2A7, Q6PXP3]

Each binder was assayed against TJP1_3, Q07157 (assay: holdup assay). Details: plain residues with an end cap or a label only (N-terminal biotin on a linker: ado-ado).
Set-up: key: below the threshold = too weak to quantify, mostly under pKd 3.1 to 4

TJP1_3, Q07157, sequence (Q07157 416-512): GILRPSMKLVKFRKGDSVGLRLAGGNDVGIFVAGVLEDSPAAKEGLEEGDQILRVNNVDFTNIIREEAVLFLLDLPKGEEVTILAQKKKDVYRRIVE

Row | pKd | Binder
30 | below the threshold | TASPAKETSF [SLC2A7, Q6PXP3]
